Assay results taken from US20120064090A1, “THERAPEUTIC AGENT FOR CANCER HAVING REDUCED SENSITIVITY TO MOLECULAR TARGET DRUG AND PHARMACEUTICAL COMPOSITION FOR ENHANCING SENSITIVITY TO MOLECULAR TARGET DRUG” (KRINGLE PHARMA INC., priority 2009, published 2012).

Tests used:
[1] = test system: tumor formed of PC-9 and MRC-5 cells; experiment: Xenograft tumor (PC-9 + MRC-5) transplanted into SCID mice; assay type: in vivo; details: PC-9 + MRC-5 s.c., days 4 to 16, gefitinib 25 mg/kg/day oral, antibody 5 mg/kg/day i.p., NK4 9 mg/kg/day i.p., FIG. 6
Protocol: SCID mice (female, 5 weeks old) were purchased from CLEA Japan.
100 μL of a cell suspension containing PC-9 (5×10^6 cells) and MRC-5 (5×10^6 cells) was subcutaneously inoculated from the back skin of each SCID mouse. Four days later, mice bearing a tumor exceeding 4 mm in diameter were randomly divided into 6 groups (5 mice per group) as shown in Table 1.
In gefitinib-treated groups (groups 4, 5 and 6 in Table 1), gefitinib (25 mg/kg/day) was orally administered once daily in the morning for 13 days from 4 days to 16 days after cell inoculation. In gefitinib-non-treated groups (groups 1, 2 and 3 in Table 1), a water containing 1% Tween80 was orally administered once daily in a similar manner to the above. In anti-HGF neutralizing antibody-treated groups (groups 2 and 5 in Table 1), the anti-HGF neutralizing antibody (5 mg/kg/day) was intraperitoneally administered once daily immediately after gefitinib administration for 13 days from 4 days to 16 days after cell inoculation. In NK4-treated groups (groups 3 and 6 in Table 1), NK4 (9 mg/kg/day) was intraperitoneally administered in divided portions twice a day in the morning immediately after gefitinib administration and in the evening for 13 days from 4 days to 16 days after cell inoculation.
The width and length of tumor were measured every other day, and the tumor area (width×length) was calculated. […]

[2] = test system: H1975; experiment: Effects of anti-human HGF neutralizing antibody or NK4 on H1975 with HGF-induced CL-387,785-resistance; assay type: cell-based; details: CL-387,785 0.3 μM, HGF 50 ng/mL, antibody 2 μg/mL, NK4 0.3 μM, 72 hours, FIG. 10
Protocol: In the same manner as in the above (a), H1975 was seeded at 2×10^3 cells/well on 96-well plates. […] The degree of cell growth was measured by the MTT method and the growth rate was calculated in the same manner as in the above (a).

[3] = test system: PC-9; experiment: Effects of SU11274 on PC-9 with HGF-induced gefitinib-resistance; assay type: cell-based, human; details: HGF 20 ng/mL, gefitinib 0.3 μM, antibody 1 μg/mL, NK4 0.3 μM, SU11274 0.3 μM, 72 hours, FIG. 11
Protocol: PC-9 was seeded at 2×10^3 cells/well on 96-well plates and cultured for 24 hours. […] After that, 50 μL of an MTT solution (2 mg/mL, manufactured by Sigma) was added and incubation was performed at 37° C. for 2 hours. The culture media were removed, and dark blue crystals were dissolved by adding 100 μL of DMSO. The absorbance was measured with a microplate reader MTP-120 (Corona Electric Co., Ltd.) at the detection and reference wavelengths of 550 nm and 630 nm, respectively. The growth rate was shown as a relative value based on an untreated control. Each experiment was performed in triplicate and repeated thrice independently.

[4] = test system: H1975; experiment: Effects of SU11274 on H1975 with HGF-induced CL-387,785-resistance; assay type: cell-based, human; details: CL-387,785 0.3 μM, HGF 50 ng/mL, antibody 2 μg/mL, NK4 0.3 μM, 72 hours, FIG. 12
Protocol: H1975 was seeded at 2×10^3 cells/well on 96-well plates and cultured for 24 hours. […] The degree of cell growth was measured by the MTT method and the growth rate was calculated in the same manner as in the above (a).

B1: NK4 (protein, listed as Homo sapiens)
chain 1: MWVTKLLPALLLQHVLLHLLLLPIAIPYAEGQRKRRNTIHEFKKSAKTTLIKIDPALKIKTKKVNTADQCANRCTRNKGLPFTCKAFVFDKARKQCLWFPFNSMSSGVKKEFGHEFDLYENKDYIRNCIIGKGRSYKGTVSITKSGIKCQPWSSMIPHEHSFLPSSYRGKDLQENYCRNPRGEEGGPWCFTSNPEVRYEVCDIPQCSEVECMTCNGESYRGLMDHTESGKICQRWDHQTPHRHKFLPERYPDKGFDDNYCRNPDGQPRPWCYTLDPHTRWEYCAIKTCADNTMNDTDVPLETTECIQGQGEGYRGTVNTIWNGIPCQRWDSQYPHEHDMTPENFKCKDLRENYCRNPDGSESPWCFTTDPNIRVGYCSQIPNCDMSHGQDCYRGNGKNYMGNLSQTRSGLTCSMWDKNMEDLHRHIFWEPDASKLNENYCRNPDDDAHGPWCYTGNPLIPWDYCPISRCEGDTTPTIV
chain 2: MWVTKLLPALLLQHVLLHLLLLPIAIPYAEGQRKRRNTIHEFKKSAKTTLIKIDPALKIKTKKVNTADQCANRCTRNKGLPFTCKAFVFDKARKQCLWFPFNSMSSGVKKEFGHEFDLYENKDYIRNCIIGKGRSYKGTVSITKSGIKCQPWSSMIPHEHSYRGKDLQENYCRNPRGEEGGPWCFTSNPEVRYEVCDIPQCSEVECMTCNGESYRGLMDHTESGKICQRWDHQTPHRHKFLPERYPDKGFDDNYCRNPDGQPRPWCYTLDPHTRWEYCAIKTCADNTMNDTDVPLETTECIQGQGEGYRGTVNTIWNGIPCQRWDSQYPHEHDMTPENFKCKDLRENYCRNPDGSESPWCFTTDPNIRVGYCSQIPNCDMSHGQDCYRGNGKNYMGNLSQTRSGLTCSMWDKNMEDLHRHIFWEPDASKLNENYCRNPDDDAHGPWCYTGNPLIPWDYCPISRCEGDTTPTIV
notes: recombinant human NK4 protein; N-terminal hairpin domain and four kringle domains of HGF α chain, antagonist of HGF
tumor volume / tumor growth over time [1]: tumor growth rate was slightly reduced | inhibition of HGF-induced hyposensitivity of H1975 to CL-387,785 [2]: inhibited the HGF-induced hyposensitivity | inhibition of HGF-induced hyposensitivity of PC-9 to gefitinib [3]: significantly inhibited | inhibition of HGF-induced hyposensitivity of H1975 to CL-387,785 [4]: significantly inhibited
